Measurements: article PMC1865076

B1: mim-A (dsDNA)
DNA 1: AGCGCTAAAAAACCGTTATAATGTGCAGAT
DNA 2: ATCTGCACATTATAACGGTTTTTTAGCGCT
B2: mim-C (dsDNA)
DNA 1: GTTGATTTCCATCTGTTATTTGAGCTAAG
DNA 2: CTTAGCTCAAATAACAGATGGAAATCAAC

Assays:
[1] = target: T1, His6-Ovol1 (UniProt Q9WTJ2 1-267); assay: competition
[2] = target: c-Myb R2R3 (chicken, UniProt P01103 87-193); assay: EMSA
[3] = target: T1, His6-Ovol1; assay: EMSA

T1 sequence (Q9WTJ2 whole entry): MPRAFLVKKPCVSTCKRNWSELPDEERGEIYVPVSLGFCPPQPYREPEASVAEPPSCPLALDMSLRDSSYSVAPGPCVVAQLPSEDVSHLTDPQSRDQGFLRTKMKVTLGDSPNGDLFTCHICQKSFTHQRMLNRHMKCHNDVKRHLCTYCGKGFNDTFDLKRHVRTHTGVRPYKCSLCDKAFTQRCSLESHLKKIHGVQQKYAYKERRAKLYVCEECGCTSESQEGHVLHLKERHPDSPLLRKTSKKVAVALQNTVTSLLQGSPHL
Chain of c-Myb R2R3 (P01103 87-193): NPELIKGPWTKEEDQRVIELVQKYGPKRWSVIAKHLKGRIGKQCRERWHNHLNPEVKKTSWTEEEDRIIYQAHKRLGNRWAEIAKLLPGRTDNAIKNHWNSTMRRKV

Row | Binder | binding result [1] | binding result [2] | binding result [3]
1 | B1 | binds | binds | 
2 | B2 |  |  | no binding
